Target: the molecule itself
Assay: dynamic light scattering; drug-free; 1 mg/mL PanD in 50 mM Tris pH 7.5, 200 mM NaCl, 298 K; octamer

B1: Wild-type Mtb Aspartate decarboxylase PanD (PanDWT), cleaved active form (enzyme)
chain 1: MLRTMLKSKIHRATVTCADLHYVG
chain 2: SVTIDADLMDAADLLEGEQVTIVDIDNGARLVTYAITGERGSGVIGINGAAAHLVHPGDLVILIAYATMDDARARTYQPRIVFVDAYNKPIDMGHDPAFVPENAGELLDPRLGVG
notes: not shown: His6, N-terminal, kept; copies: 8 + 8
- stoichiometry N: 8
